Measurements taken from patent publication US7291332B2, “Inflammatory mediator antagonists” (SmithKline Beecham Corporation, priority 1998, dated 2007).
Values belong to the molecule of their own block, whether it stands above or below them.

Columns and labels:
[1] = tested on: OSM-induced sPAP release, HepG2 B6 cells; assay: HepG2 B6: OSM-induced sPAP assay; type: cell-based, human
Excerpt: A HepG2 cell line (ECACC) was stably transfected with six functional STAT3 response elements (REs) upstream of sPAP (secreted placental alkaline phosphatase) cDNA as described below to form HepG2B6. STAT3 (signal transducer and activator of transcription) is an intermediate in the IL-6 cytokine family […] signalling cascade. Following dimerisation of cell surface receptors STAT3 is phosphorylated and will then bind to DNA REs in the nucleus and activate DNA downstream, in this construct that DNA is sPAP. Thus this line can be driven to produce sPAP by overnight incubation in Oncostatin M.
HepG2 B6 cells were plated into 96 well plates to a final concentration of 3×10^4 cells per well in 100 μl of media (DMEM (Sigma), 10% HI FCS, 1% non-essential amino acids, 2 mM Glutamine, 500 μg ml^−1 G418, (all from Life Technologies)). Cells were allowed to equilibrate for 48 hours. Putative anti-OSM solid compounds were made up to a stock dilution of 20 mM in DMSO and serially diluted 1:3 in DMSO. This was then further diluted in HepG26B assay media, this is as above media but with 1% heat inactivated FCS, low alkaline phosphatase activity (Life Technologies) substituted for 10% HI FCS. Compounds were diluted 1:3 from a top concentration of […] to a final concentration of 0.09 μM in a final concentration of 1% DMSO. (That is 200, 66.67, 22.22, 7.41, 2.47, 0.82, 0.27, 0.09 and 0 μM). The old media was removed from the wells and replaced with diluted compound also containing 2 ng ml^−1 OSM (R&D Systems), cells were incubated for a further 20 hours. Each dilution was performed in triplicate. 20 μl of media was removed from each well and assayed for sPAP activity using pNPP (p-Nitrophenyl phosphate; Sigma), as a substrate. Endogenous alkaline phosphatase is blocked with L-homoarginine. Optical density of substrate is read at 405-650 nm. Concentration of compound is plotted against OD as a measure of sPAP produced and can be analysed to determine IC50 values.

[2] = tested on: TNFα-induced sPAP release, A549 cells; assay: A549 cells: TNFα-induced sPAP assay; type: cell-based, human
Description: This assay used A549 cells that had been stably transfected with a reporter gene, comprising the cytokine responsive region of the E-selectin gene coupled to alkaline phosphatase (Ray et al., Biochem J. 328:707-715, 1997). This transfected cell line can be driven to produce sPAP by overnight incubation with TNFα.
A549 cells were plated into 96 well plates to a final concentration of 5×10^4 cells per well in […] of media. Cells were allowed to equilibrate for 24 hours. Putative anti-OSM solid compounds are made up to a stock dilution of 20 mM in DMSO and serially diluted 1:3 in DMSO. This was then further diluted in media (DMEM, 1% heat inactivated FCS, low alkaline phosphatase activity, 1% non-essential amino acids, 2 mM Glutamine, 500 μg ml^−1 G418, (all from Life Technologies), to give a concentration response of 0.09-200 μM in a final concentration of 1% DMSO. The old media was removed from the wells and replaced with diluted compound also containing 3 ng ml^−1 TNFα (R&D Systems), cells were incubated for a further 20 hours. Each dilution was performed in triplicate. 20 μl of media was removed from each well and assayed for sPAP activity using p-Nitrophenyl phosphate (Sigma), as a substrate. […] Optical density of substrate is read at 405-650 nm. Concentration of compound is plotted against OD as a measure of sPAP produced and can be analysed to determine IC50 values.

L-selectin = target: T1, L-selectin (Homo sapiens, UniProt P14151); assay: Stimulation of PBMC via L-selectin: OSM secretion (ELISA); type: cell-based; settings: 24 hr incubation
T1 construct: endogenous in cells; host or cells: human peripheral blood mononuclear cells (buffy coats)
T1 sequence (P14151 39-372): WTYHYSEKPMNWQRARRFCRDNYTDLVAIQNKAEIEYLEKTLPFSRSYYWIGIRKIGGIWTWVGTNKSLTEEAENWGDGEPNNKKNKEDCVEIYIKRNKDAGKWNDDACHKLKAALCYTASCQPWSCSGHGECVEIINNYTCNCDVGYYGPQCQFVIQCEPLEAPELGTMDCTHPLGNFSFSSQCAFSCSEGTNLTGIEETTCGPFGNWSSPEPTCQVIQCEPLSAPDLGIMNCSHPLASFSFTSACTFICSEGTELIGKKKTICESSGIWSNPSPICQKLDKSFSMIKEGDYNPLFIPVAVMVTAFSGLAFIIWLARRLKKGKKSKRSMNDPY
Description: Mononuclear cells were isolated from human buffy coats as described above. 5×10^5 cells were plated out in 0.5 ml volumes and incubated for 24 hr at 37° C., 5% CO2 with 60-80 kD M. wt. fucoidan (Sigma) anti-L-selectin monoclonal antibodies, LAM1-3 and TQ1 or an isotype matched control IgG antibody (all from Coulter). Supernatants were assayed for OSM using a specific ELISA assay (Quantikine, R&D Systems), according to the Manufacturer's instructions.
Mononuclear cells from healthy donors were incubated for 24 hrs with anti-human L-selectin antibodies, (either TQ1 or LAM-1), or an isotype-matched control antibody and culture supernatants assayed by ELISA for OSM. […] The ability of the L-selectin agonist fucoidan to induce OSM from mononuclear cell cultures was then investigated.

THP-1 cells = assay: OSM-induced TNFα production by PMA-differentiated THP-1 cells (ELISA, RT-PCR); type: cell-based, human
Description: Human pro-monocytic line THP-1 cells (ECACC) were passaged twice weekly in RPMI supplemented with 10% heat-inactivated FCS, 10 mM hepes, 1% non-essential amino acids (all from Sigma), 4 mM L-glutamine (Hyclone), 100 U/ml penicillin+100 μg/ml streptomycin (Hyclone) (complete medium, CM) and then PMA (Sigma) was added to washed cells at 1 ug/ml and Incubated at 37° C. for 30 minutes. Cells were washed ×3 in pre-warmed PBS, resuspended in CM and plated out at 1.5×10^5 cells/ml in 96-well flat bottomed plates (Costar). Plates were incubated for 48 hours at 37° C., 5% CO2, then washed with PBS, the media replaced, and incubated for a further 24 hours. Cells were washed ×1 in PBS before use.
(§1) Lyophilised, recombinant human oncostatin M (rhOSM) was purchased from R&D Systems diluted to 10 μg/ml in sterile PBS+0.1% BSA (Sigma) and aliquots stored at −20° C. until use. rhOSM, E. coli-derived LPS or CM were added to triplicate wells of macrophages, monocytes or Thp-1 cells, prepared as above and incubated for 7 hours at 37° C., 5% CO2. Supernatants were harvested and frozen at −20° C. until testing for TNFα protein by ELISA. In assays designed to co-assay for TNFα mRNA, cells were incubated as above for 4 hrs, washed once in PBS and lysed in RNA extraction buffer (RNAzole).
RNA was detected as follows. Total RNA was prepared according to the manufacturer's instructions and stored at −80° C. in DEPC-treated water. For RT-PCR, approximately 1 ug of RNA was reverse transcribed using oligo dT priming (first strand cDNA synthesis kit, Pharmacia Biotech) and the resulting cDNA subjected to 30 cycles of PCR using the following primers for TNFα (Clontech amplimers): forward—[…], (SEQ ID 1) reverse-[…] CCAGAC (SEQ ID 2). The amplified product (444 bp) was separated by agarose gel (2%) electrophoresis and visualized by ethidium bromide staining.
The human pro-monocytic line THP-1, was induced to differentiate using PMA, washed thoroughly, and incubated with recombinant human OSM as described above. Culture supernatants were removed at 8 hours and assayed for TNFα production by specific ELISA (TNF Quantikine, R&D Systems) in accordance with manufacturers instructions. OSM induced a dose-related release of TNFα, measurable above 1 ng/ml OSM and maximal at 200-500 ng/ml, routinely reaching secreted levels of greater than 2500 pg/ml TNFα.

human blood macrophages = assay: OSM-induced TNFα secretion by blood macrophages (ELISA); type: cell-based; settings: co-incubated 8 hr with OSM, n=3 donors
Description: as §1
Importantly, TNFα induction was not due to contaminating endotoxin as pre-boiling of OSM completely ablated TNFα secretion (data not shown). Also, removal of OSM by immunoprecipitation using specific antibody abolished activity (data not shown). These findings were extended to include human blood monocytes, pre-activated with interferon-γ and human blood macrophages, differentiated in culture for 7 days. Both cell types, when co-incubated for 8 hr with OSM, secreted TNFα, as measured by ELISA. Mean TNFα secretion by monocytes was 1447 pg/ml (range 137-4709 pg/ml; n=4 donors) and 542 pg/ml by macrophages (range 62-1428 pg/ml; n=3 donors).

human blood monocytes = assay: OSM-induced TNFα secretion by interferon-γ pre-activated blood monocytes (ELISA); type: cell-based; settings: co-incubated 8 hr with OSM, n=4 donors
Description: Human buffy coats (North London Blood Transfusion Centre) were diluted 1:3 with PBS, layered onto Lymphoprep (Nycomed UK) and centrifuged at 600×g for 30 minutes at room temperature. Harvested PBMC were washed 3 times in PBS, counted, and resuspended in 80 mls RPMI 1640/10% FCS at 5×10^6 cells/ml. 20 mls were put into each of four 175 cm^2 flasks and Incubated overnight at 37° C. to allow monocytes to adhere. Non-adherent cells were discarded and adherent cells scraped off after incubation with ice-cold versene at 4° C. for 15 minutes. Cells were washed twice in PBS, resuspended in RPMI 1640+10% heat inactivated human serum (Sigma) at 6.9×10^5/ml and 250 ul cell suspension placed into each well of 96-well flat bottomed plate (Costar). To half the plate was added 100 IU/ml IFNγ (Genzyme), the other half left as control. Plates were incubated overnight at 37° C., 5% CO2 prior to assay. […]
Importantly, TNFα induction was not due to contaminating endotoxin as pre-boiling of OSM completely ablated TNFα secretion (data not shown). […] Both cell types, when co-incubated for 8 hr with OSM, secreted TNFα, as measured by ELISA. […]

Bovine nasal cartilage = assay: Cartilage degradation assay (hydroxyproline/collagen release, MMP1)

IC50 ([1]; Homo sapiens, HepG2, 2 ng/ml OSM, 20 hours, read-out: IC50, inhibition of OSM-induced sPAP release): 0.3 µM
IC50 ([2]; Homo sapiens, A549, 3 ng/ml TNFα, 20 hours, read-out: approx. IC50, inhibition of TNFα-induced sPAP): ~92 µM
Molecule: O=C(Nc1ncnc2[nH]ncc12)c1ccccc1 [GW 340442X, N-(1H-pyrazolo[3,4-d]pyrimidin-4-yl)benzamide]
inhibition of OSM-induced sPAP release ([1]; HepG2 B6): concentration-dependent inhibition
selectivity for OSM over TNFα ([1]; from sPAP IC50 values): greater than 100 fold
inhibition of TNFα-induced sPAP release ([2]; A549 cells): limited inhibition

OSM secretion by mononuclear cells (L-selectin): powerful stimulant of OSM secretion
Molecule: fucoidan

B1: OSM: recombinant human oncostatin M purchased from R&D Systems (protein)
chain: AAIGSCSKEYRVLLGQLQKQTDLMQDTSRLLDPYIRIQGLDVPKLREHCRERPGAFPSEETLRGLGRRGFLQTLNATLGCVLHRLADLEQRLPKAQDLERSGLNIEDLEKLQMARPNILGLRNNIYCMAQLLDNSDTAEPTKAGRGASQPPTPTPASDAFQRKLEGCRFLHGYHRFMHSVGRVFSKWGESPNRSRRHSPHQALRKGVRRTRPSRKGKRLMTRGQLPR
Expression of TNFα message (RT-PCR) (THP-1 cells; 4 hr with 100 ng/ml OSM, relative to unstimulated control cells): strongly increased
OSM concentration above which TNFα release is measurable (THP-1 cells; 8 hours): above 1 ng/ml
OSM concentration at which TNFα release is maximal (THP-1 cells; 8 hours): 200 to 500 ng/mL
secreted levels of TNFα (THP-1 cells; PMA-differentiated THP-1, supernatants at 8 hours, at maximal OSM): greater than 2500 pg/ml
Mean TNFα secretion by macrophages (human blood macrophages): 542 pg/mL
Mean TNFα secretion by monocytes (human blood monocytes): 1447 pg/mL
collagen release (Bovine nasal cartilage; OSM alone at 10 ng/ml, day 14): did not induce collagen release
MMP1 secretion (total collagenase activity) (Bovine nasal cartilage; day 7, OSM 10 ng/ml, TNFα 50 ng/ml): neither OSM nor TNFα alone, used at 10 ng/ml or 50 ng/ml, respectively, induced significant MMP1 secretion
